Data taken from patent US20250026849A1 (ARCELLX, published 2025).
Residue numbers refer to the chain shown, from its start.

B1: D-domain SEQ ID NO: 321 (designed binder)
chain: MGSWFTFKQNLAWIKLHLEALGGSEAELARFEYYIADFENKLQLYKGKGNPEVEALRKEAAAIRDELQAYRHN
B2: D-domain SEQ ID NO: 295 (designed binder)
chain: MGSWFYFKQKLAFIKWYLEALGGSEAELANFEIYIAEFEVMLQQYKGKGNPEVEALRKEAAAIRDELQAYRHN
B3: D-domain SEQ ID NO: 297 (designed binder)
chain: MGSWGNFKYRLAIIKFHLEALGSSEAELATFEAWIANFESMLQNYKGKGNPEVEALRKEAAAIRDELQAYRHN
B4: D-domain SEQ ID NO: 292 (designed binder)
chain: MGSWFAFKHRLAVIKYMLEALGGSEAELAFFEHWIAQFEHDLQQYKGKGNPEVEALRKEAAAIRDELQAYRHN
B5: D-domain SEQ ID NO: 294 (designed binder)
chain: B4 chain with F5Y, A6K, R10K, F30W, H33E, Q37E, H40V, D41T, Q44D
B6: D-domain SEQ ID NO: 293 (designed binder)
chain: B4 chain with F5Y, A6E, H33N, D41E, Q44T
B7: D-domain SEQ ID NO: 327 (designed binder)
chain: MGSWTSFKHGLAGIKRVLEALGGSEAELATFEWYIAQFERHLQAYKGKGNPEVEALRKEAAAIRDELQAYRHN
B8: D-domain SEQ ID NO: 290 (designed binder)
chain: MGSWTGFKYRLAIIKFMLEALGGSEAELAFFEQWIADFENELQYYKGKGNPEVEALRKEAAAIRDELQAYRHN
B9: D-domain SEQ ID NO: 291 (designed binder)
chain: B8 chain with T5H, G6N, F30W, Q33N, N40D, E41S, Y44D
B10: D-domain SEQ ID NO: 320 (designed binder)
chain: MGSWDHFKYNLAWIKKYLEALGGSEAELATFEWYIANFEKRLQDYKGKGNPEVEALRKEAAAIRDELQAYRHN
B11: D-domain SEQ ID NO: 325 (designed binder)
chain: MGSWISFKDNLAMIKEFLEALGGSEAELAVFEWYIATFEVELQDYKGKGNPEVEALRKEAAAIRDELQAYRHN
B12: D-domain SEQ ID NO: 326 (designed binder)
chain: B11 chain with I5H, S6I, M13T, E16A, T37K, V40E, D44G
B13: D-domain SEQ ID NO: 322 (designed binder)
chain: MGSWREFKYGLAHIKRVLEALGGSEAELAVFEYYIAKFEQELQEYKGKGNPEVEALRKEAAAIRDELQAYRHN
B14: D-domain SEQ ID NO: 324 (designed binder)
chain: B13 chain with R5V, Y9H, G10N, H13W, R16V, V17T, K37Q, Q40E, E41Q
B15: D-domain SEQ ID NO: 323 (designed binder)
chain: B13 chain with R5I, E6Q, V17T, Y33W, K37D, E41Q, E44G
B16: D-domain SEQ ID NO: 286 (designed binder)
chain: MGSWVGFKAHLAIIKWYLEALGGSEAELAGFEIFIADFEALLQMYKGKGNPEVEALRKEAAAIRDELQAYRHN
B17: D-domain SEQ ID NO: 318 (designed binder)
chain: MGSWIVFKQSLAWIKEHLEALGGSEAELAEFEFYIANFEHTLQNYKGKGNPEVEALRKEAAAIRDELQAYRHN
B18: D-domain SEQ ID NO: 319 (designed binder)
chain: B10 chain with D5I, H6Y, Y9D, N10S, W13Y, W33Y, K40H, R41E, D44Y
B19: D-domain SEQ ID NO: 316 (designed binder)
chain: MGSWLDFKEGLADIKRSLEALGGSEAELADFEGVIALFEWKLQTYKGKGNPEVEALRKEAAAIRDELQAYRHN
B20: D-domain SEQ ID NO: 315 (designed binder)
chain: MGSWAYFKYGLAVIKLHLEALGGSEAELADFERYIAEFEYELQAYKGKGNPEVEALRKEAAAIRDELQAYRHN
B21: D-domain SEQ ID NO: 282 (designed binder)
chain: MGSWQNFKYHLAMIKWYLEALGGSEAELANFEEFIAQFEINLQHYKGKGNPEVEALRKEAAAIRDELQAYRHN
B22: D-domain SEQ ID NO: 304 (designed binder)
chain: MGSWSYFKYGLATIKEKLEALGGSEAELADFETWIAMFEKQLQEYKGKGNPEVEALRKEAAAIRDELQAYRHN
B23: D-domain SEQ ID NO: 313 (designed binder)
chain: B22 chain with S5G, Y9H, T13H, E16S, K17S, T33V, M37A, K40N, Q41E
B24: D-domain SEQ ID NO: 301 (designed binder)
chain: B22 chain with S5I, T13H, E16T, K17R, T33Q, M37E, Q41M, E44D
B25: D-domain SEQ ID NO: 303 (designed binder)
chain: B22 chain with S5E, E16M, K17H, T33H, M37H, K40H, E44M
B26: D-domain SEQ ID NO: 307 (designed binder)
chain: B22 chain with S5V, Y9H, T13V, E16M, K17R, M37Q, K40M, Q41T
B27: D-domain SEQ ID NO: 310 (designed binder)
chain: B22 chain with S5T, T13L, E16Y, K17R, T33E, M37Q, K40V, Q41S, E44H
B28: D-domain SEQ ID NO: 306 (designed binder)
chain: B22 chain with S5Q, T13I, E16I, T33A, M37T, E44H
B29: D-domain SEQ ID NO: 300 (designed binder)
chain: B20 chain with A5S, Y9W, V13H, H17R, R33F, Y34W, Y40G, E41L, A44D
B30: D-domain SEQ ID NO: 312 (designed binder)
chain: B22 chain with S5T, Y9F, T13H, E16D, K17S, T33Q, K40Q, Q41D, E44V
B31: D-domain SEQ ID NO: 305 (designed binder)
chain: B22 chain with S5H, Y9N, T13I, T33I, K40M, Q41E
B32: D-domain SEQ ID NO: 309 (designed binder)
chain: B22 chain with S5Y, T13V, E16G, M37K, K40N, Q41H, E44S
B33: D-domain SEQ ID NO: 302 (designed binder)
chain: B22 chain with S5G, E16H, K17R, T33L, M37K, K40E, E44V
B34: D-domain SEQ ID NO: 299 (designed binder)
chain: B22 chain with Y9F, T13H, E16L, K17R, T33Q, M37S, K40E, E44T
B35: D-domain SEQ ID NO: 311 (designed binder)
chain: B22 chain with S5D, T13L, E16I, T33V, M37Q, K40M, Q41A, E44V
B36: D-domain SEQ ID NO: 308 (designed binder)
chain: B22 chain with S5V, T13V, M37E, K40F, Q41G, E44Q
B37: D-domain SEQ ID NO: 298 (designed binder)
chain: B22 chain with T13I, E16I, K17R, T33R, M37A, K40H, Q41D, E44Y
B38: D-domain SEQ ID NO: 314 (designed binder)
chain: MGSWGYFKTGLAIIKAQLEALGGSEAELADFELWIAQFEETLQFYKGKGNPEVEALRKEAAAIRDELQAYRHN
B39: D-domain SEQ ID NO: 296 (designed binder)
chain: MGSWFSFKHHLAVIKWNLEALGGSEAELASFEEQIAEFESVLQAYKGKGNPEVEALRKEAAAIRDELQAYRHN
B40: D-domain SEQ ID NO: 317 (designed binder)
chain: MGSWEVFKHELAVIKDYLEALGGSEAELAHFEWGIAWFEGFLQDYKGKGNPEVEALRKEAAAIRDELQAYRHN
B41: D-domain SEQ ID NO: 277 (designed binder)
chain: MGSWYHFKYHLALIKWYLEALGGSEAELAHFEHWIAEFEWTLQQYKGKGNPEVEALRKEAAAIRDELQAYRHN
B42: D-domain SEQ ID NO: 283 (designed binder)
chain: B21 chain with Q5Y, M13I, Y17W, N30D, E33H, F34Y, Q37D, I40R, H44E
B43: D-domain SEQ ID NO: 281 (designed binder)
chain: B41 chain with Y5I, H6E, H10K, L13I, W16F, E37D, W40F, T41V
B44: D-domain SEQ ID NO: 274 (designed binder)
chain: B41 chain with Y5V, H6D, L13V, H30D, H33N, E37H, W40S, T41I
B45: D-domain SEQ ID NO: 279 (designed binder)
chain: B41 chain with Y5L, H6S, Y9H, H30S, H33A, E37L, W40H, T41Q
B46: D-domain SEQ ID NO: 287 (designed binder)
chain: B4 chain with F5V, A6N, H9Y, R10K, V13I, H33D, Q37E, H40R, D41T
B47: D-domain SEQ ID NO: 284 (designed binder)
chain: B41 chain with H6Q, L13I, H30G, H33N, W34Y, E37T, W40Q, T41E
B48: D-domain SEQ ID NO: 278 (designed binder)
chain: B41 chain with Y5Q, H6G, W16F, I35L, W40H, T41D, Q44T
B49: D-domain SEQ ID NO: 280 (designed binder)
chain: B41 chain with Y5S, H6E, H10K, H33G, E37N, W40T, Q44K
B50: D-domain SEQ ID NO: 288 (designed binder)
chain: B4 chain with F5S, A6N, H9Y, H33D, Q37D, H40L, D41H, Q44V
B51: D-domain SEQ ID NO: 285 (designed binder)
chain: B16 chain with V5S, G6H, A9Y, W16F, F34W, D37K, A40D, L41E
B52: D-domain SEQ ID NO: 275 (designed binder)
chain: MGSWVEFKYHLAVIKFTLEALGGSEAELADFEEEIARFEMILQQYKGKGNPEVEALRKEAAAIRDELQAYRHN
B53: D-domain SEQ ID NO: 289 (designed binder)
chain: B8 chain with G6N, R10K, I13V, Q33D, D37G, N40I, E41D, Y44N

Molecular target: T1, BCMA (Homo sapiens (Human), UniProt Q02223 1-54, limits assumed)
T1 sequence: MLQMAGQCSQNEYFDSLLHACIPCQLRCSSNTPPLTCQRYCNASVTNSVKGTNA
Assay: ELISA, format not described
Parameters: unit not given here

Row | Binder | ELISA_avg
1 | B1 | 14.2
2 | B2 | 7.23
3 | B3 | 22.7
4 | B4 | 12
5 | B5 | 4.54
6 | B6 | 3.71
7 | B7 | 9.77
8 | B8 | 13.9
9 | B9 | 13.6
10 | B10 | 9.81
11 | B11 | 7.16
12 | B12 | 3.47
13 | B13 | 14.7
14 | B14 | 15.8
15 | B15 | 8.36
16 | B16 | 9.71
17 | B17 | 10.6
18 | B18 | 3.2
19 | B19 | 3.03
20 | B20 | 13.4
21 | B21 | 9.55
22 | B22 | 18.1
23 | B23 | 18.5
24 | B24 | 21.1
25 | B25 | 18.4
26 | B26 | 21.4
27 | B27 | 15.2

Row | Binder | ELISA_avg
28 | B28 | 10.3
29 | B29 | 17.6
30 | B30 | 17
31 | B31 | 19.9
32 | B32 | 3.84
33 | B33 | 14
34 | B34 | 18.4
35 | B35 | 15.8
36 | B36 | 17.6
37 | B37 | 13.3
38 | B38 | 12.8
39 | B39 | 6.45
40 | B40 | 9.33
41 | B41 | 8.85
42 | B42 | 8.63
43 | B43 | 14.9
44 | B44 | 10.4
45 | B45 | 6.3
46 | B46 | 7.39
47 | B47 | 18.4
48 | B48 | 21.2
49 | B49 | 11.3
50 | B50 | 9.34
51 | B51 | 9.34
52 | B52 | 6.92
53 | B53 | 11.4
